How the values were obtained:
[1] = biological target: the molecule itself; experiment: SEC-MALS; Shodex KW803 column, 20 mM Hepes pH 7.4, 100 mM NaCl; protein injected at 4 mg/mL (121 uM)
[2] = biological target: the molecule itself; experiment: SEC-MALS; Shodex KW803 column, 20 mM citrate buffer pH 3.6, 150 mM NaCl; protein injected at 4 mg/mL (121 uM)

B1: ATV^ORF273, virion protein of the Acidianus two-tailed virus (recombinant, C-terminal hexa-histidine tag) (natural protein)
chain: MGEKITEEREFQSISEIPEEEIDATNDEEKLADIVENEIEKEIRKSKTRKCKTIENFYYYILRDGKIYPASDYDIEVEKGKRSANDIYAFVETDVTRDFDEFLFDIDYGLPSISDILKFYLEKAGFRIANEVPTPNLKYYIHAVVEFGEDRPQYLAVNIYDIDSLARALRIPQIVEQKLGNKPRTITADEFNDIERIVAEEQPILAGYTYDEALRIPYHYYVDHNNSFKDDALKIAHAYLQLFPTPYQVCYEWKARWFNKIDCLKLERLKPSS
notes: ATV ORF273, virion protein of Acidianus two-tailed virus, UniProt Q3V4T6; native molar mass 32154 Da, recombinant protein 32977 Da; The printed masses (32154 Da native, 32977 Da recombinant) fit the whole ORF plus a His6 tag that is still on the protein; no cleavage of the tag is described; Oligomeric state depends on pH: tetramer at pH 7.4 and 8.5, dimer at pH 3.6; The models hold residues …
With B1 the “stoichiometry N” value [1] was 4 and the “stoichiometry N” value [2] was 2.
